Reference: paper PMC7910558, “The HIF-1α antisense long non-coding RNA drives a positive feedback loop of HIF-1α mediated transactivation and glycolysis”

Assays:
PHD3 (EMSA) = PHD3 (EMSA) (UniProt Q9H6Z9 1-239); assay: EMSA; Pull-down: RNA folded in 10 mM Tris pH 7, 0.1 M KCl, 10 mM MgCl2, then 5 µg RNA with 5 mg lysate in Pierce IP lysis buffer, 1 h, room temperature; EMSA: LightShift chemiluminescent RNA EMSA kit, buffer not given; details: protein: recombinant, label: biotin-16-UTP
PKM2 (EMSA) = PKM2 (EMSA) (UniProt P14618 1-531); assay: as above; details: protein: recombinant; label: biotin-16-UTP; two predicted hairpins (nt 4-19, nt 30-57)
Chain of PKM2 (EMSA) (P14618 whole entry): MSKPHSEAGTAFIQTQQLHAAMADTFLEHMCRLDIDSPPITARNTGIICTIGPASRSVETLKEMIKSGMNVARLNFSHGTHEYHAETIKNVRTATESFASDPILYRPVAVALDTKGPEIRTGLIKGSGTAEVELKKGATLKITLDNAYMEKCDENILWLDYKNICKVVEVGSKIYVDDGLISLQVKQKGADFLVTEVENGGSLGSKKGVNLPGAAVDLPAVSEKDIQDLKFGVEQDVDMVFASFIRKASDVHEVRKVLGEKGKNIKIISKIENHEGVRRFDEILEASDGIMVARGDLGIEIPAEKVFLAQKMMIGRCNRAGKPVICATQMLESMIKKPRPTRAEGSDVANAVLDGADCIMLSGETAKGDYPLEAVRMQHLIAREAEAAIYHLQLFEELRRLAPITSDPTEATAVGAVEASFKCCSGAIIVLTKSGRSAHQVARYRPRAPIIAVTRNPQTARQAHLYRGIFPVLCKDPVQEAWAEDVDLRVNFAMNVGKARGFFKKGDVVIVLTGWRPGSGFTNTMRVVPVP

Chain of PHD3 (EMSA) (Q9H6Z9 whole entry): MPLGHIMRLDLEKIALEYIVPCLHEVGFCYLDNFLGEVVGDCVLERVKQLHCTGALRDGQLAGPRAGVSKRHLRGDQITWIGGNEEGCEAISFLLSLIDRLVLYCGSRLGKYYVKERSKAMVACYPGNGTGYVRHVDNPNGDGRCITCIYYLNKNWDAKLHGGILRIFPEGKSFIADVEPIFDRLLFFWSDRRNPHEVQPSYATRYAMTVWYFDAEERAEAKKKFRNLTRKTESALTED

B1: HIFAL nt 501-560 (structured_RNA)
RNA: UGCAUGGUGCUUACUAAUAACACAGUGGUAUUCUAAACAUUUUUCACCUAUUAUUUAAUC
Q: Does B1 bind (PHD3 (EMSA); predicted hairpin (nt 506-532))?
A: binds

Q: Does UGCAUGUCUAAACAUUUUUCACCUAUUAUUUAAUC (ssRNA) [HIFAL 501-560 ΔhC (mC)] bind (PHD3 (EMSA))?
A: no binding

B2: HIFAL nt 1-60 (structured_RNA)
RNA: UCAUGUAGCGCCAGCCACACCAGGAACAGAAGGGUGCCGGGUACCUUCCGCAUGCUUGGU
Q: Does B2 bind (PKM2 (EMSA))?
A: binds
